The text below walks through data of PMC6987189, “Native aggregation is a common feature among triosephosphate isomerases of different species” (Scientific Reports, 2020).

Series [1] deals with the molecule itself. Nature of the series: native gel or EMSA; clear native electrophoresis (CN-PAGE), normal polarity (cathode-anode), 4-10% gradient gels, HEPES/imidazole pH 7.0 (40.0/15.3, 88.9/34.0 or 133.2/50 mM in the gel), 150 V, 4 °C, 5 h, ten micrograms of purified enzyme; masses from ferritin and albumin markers, means of the gel conditions; also after 10 mM DTT; dimers to higher aggregates.

Series [2] concerns the molecule itself. Nature of the series: native gel or EMSA; clear native electrophoresis (CN-PAGE), inverse polarity (anode-cathode), 4-10% gradient gels, HEPES/imidazole pH 7.0, 150 V, 4 °C, 5 h, ten micrograms of purified enzyme; no mass markers; dimers to higher aggregates.

Values joined by “and” are separate entries in the source; they are usually repeats but may differ in a detail not shown here. Identical values can stand only once.

B1: Taenia solium triosephosphate isomerase (enzyme, UniProt Q9GTX8 1-250, looked up)
chain: MTRKLFVGGNWKMNGSYSHINTFFDTLQKADTDPNADIVIGVPACYLKYAQDKAPKGIKIAAENCYKVGSGAFTGEISTEMIKDCGCEWVILGHSERRHIFGESNELIGEKVKHALDSGLNVIPCIGELLSEREAGKTNDVCFAQMDAIAKNVPSKEAWDKVVIAYEPVWAIGTGKTATPAQAQEVHKVVRDWIRKHVDAGIADKVRILYGGSVTASNAKDLGTQPDVDGFLVGGASLKPDFITIINARR
notes: triosephosphate isomerase (TIM), Taenia solium; gene cloned into pRSET; also called TsTIM; Ts; source: E. coli Bl21 (DE3)-p-Lys S, purified (ammonium sulphate, Butyl-650M, Source 15Q)
For B1, the “stoichiometry N” value in series [1] is 11 dimers in the aggregate and 8.5 dimers in the aggregate.

B2: Thermus thermophilus triosephosphate isomerase (enzyme, UniProt Q5SJR1 1-250, looked up)
chain: MRRVLVAGNWKMHKTPSEARVWFAELKRLLPPLQSEAAVLPAFPILPVAKEVLAETQVGYGAQDVSAHKEGAYTGEVSARMLSDLGCRYAIVGHSERRRYHGETDALVAEKAKRLLEEGITPILCVGEPLEVREKGEAVPYTLRQLRGSLEGVEPPGPEALVIAYEPVWAIGTGKNATPEDAEAMHQAIRKALSERYGEAFASRVRILYGGSVNPKNFADLLSMPNVDGGLVGGASLELESFLALLRIAG
notes: gene cloned into pET-3aHIS; also called TtTIM; Tt; source: E. coli Bl21 (DE3)-p-Lys S, purified (ammonium sulphate, Butyl-650M, Source 15Q)
With B2, in series [1], the “stoichiometry N” value is 9 dimers in the aggregate.

B3: Leishmania mexicana triosephosphate isomerase (enzyme, UniProt P48499 1-251, looked up)
chain: MSAKPQPIAAANWKCNGTTASIEKLVQVFNEHTISHDVQCVVAPTFVHIPLVQAKLRNPKYVISAENAIAKSGAFTGEVSMPILKDIGVHWVILGHSERRTYYGETDEIVAQKVSEACKQGFMVIACIGETLQQREANQTAKVVLSQTSAIAAKLTKDAWNQVVLAYEPVWAIGTGKVATPEQAQEVHLLLRKWVSENIGTDVAAKLRILYGGSVNAANAATLYAKPDINGFLVGGASLKPEFRDIIDATR
notes: triosephosphate isomerase (TIM), Leishmania mexicana; gene cloned into pET-3aHIS; also called LmTIM; Lm; source: E. coli Bl21 (DE3)-p-Lys S, purified (ammonium sulphate, Butyl-650M, Source 15Q)
With B3, in series [2], the binding result is “binds”.

B4: Trypanosoma cruzi triosephosphate isomerase (enzyme, UniProt P52270 1-251, looked up)
chain: MASKPQPIAAANWKCNGSESLLVPLIETLNAATFDHDVQCVVAPTFLHIPMTKARLTNPKFQIAAQNAITRSGAFTGEVSLQILKDYGISWVVLGHSERRLYYGETNEIVAEKVAQACAAGFHVIVCVGETNEEREAGRTAAVVLTQLAAVAQKLSKEAWSRVVIAYEPVWAIGTGKVATPQQAQEVHELLRRWVRSKLGTDIAAQLRILYGGSVTAKNARTLYQMRDINGFLVGGASLKPEFVEIIEATK
notes: triosephosphate isomerase (TIM), Trypanosoma cruzi; gene cloned into pET-3a; the aggregates are counted in dimers; also called TcTIM; Tc; source: E. coli Bl21 (DE3)-p-Lys S, purified (SP Sepharose fast flow, Butyl toyopearl, ammonium sulphate precipitation)
Turning to B4, the binding result in series [2] is “binds”.
